# Experimental data reported in the DeepSol protein solubility set.
# Experiment: soluble on expression in E. coli; label from the status in PepcDB or PDB records
row,Sequence,soluble on expression in E. coli
1,MIETKRQQERVILLGVELQTTEHFDMSMTELANLAKTAGVKVMASFSQKRERYDSKTFIGSGKLDEIKAIVEADEIDAVIVNNRLTARQNANLEAVLEVKVIDRMQLILDIFAMRARSHEGKLQVHLAQLKYMLPRLVGQGIMLSRQAGGIGSRGPGESQLELNRRSIRHQIADIERQLTQVEKNRQTIRDRRVGSDTFKIGLIGYTNAGKSTIMNLLTDDSHYEANELFATLDATTKQLYLENQFQATLTDTVGFIQDLPTELVAAFKSTLEESKYVDLLLHVIDASDPNHSEQEKVVLNLLKELDMLNIPRLAIYNKVDIAEQFTATAFPNIRISARSKDSKILLRRLIIDQIRDQFVPFRIKVHQDKAYKLYDLNRVALLDHYTFDQEIEDISGYISPKQQWRLDDFYELEHHHHHH,soluble
2,MSERIVPSGDVELWSDDFGDPADPALLLVMGGNLSALGWPDEFARRLADGGLHVIRYDHRDTGRSTTRDFAAHPYGFGELAADAVAVLDGWGVDRAHVVGLSMGATITQVIALDHHDRLSSLTMLLGGGLDIDFDANIERVMRGEPTLDGLPGPQQPFLDALALMNQPAEGRAAEVAKRVSKWRILSGTGVPFDDAEYARWEERAIDHAGGVLAEPYAHYSLTLPPPSRAAELREVTVPTLVIQAEHDPIAPAPHGKHLAGLIPTARLAEIPGMGHALPSSVHGPLAEVILAHTRSAA,soluble
3,ISRLLKNNLMDDVFNTENESFAQETRLIENEYSINLPTRFYYKKKWNDGWINVVNPFRASMVLGTPGSGKSYAIVNNYIKQQIEKGFAVYIYDYKFPDLSEIAYNHLISYLDGYKVKPKFYMINFDDPRKSHRCNPINPAFMTDISDAYEASYTIMLNLNRSWITKQGDFFVESPIILLASIIWFLKIYQGGKYCTFPHAIEFLNKKYADTFTILTSYPELENYLSPFMDAWESNAQDQLQGQLASAKIPLSRMISPALYWVMTGDDFSLDINNPEEPKILVVGNNPDRQNIYSCALGLYNSRIVKLINKKHQLKSSVIIDELPTIYFRGLDNLIATARSNKVAVCLGFQDFSQLRRDYGDKESKVIENTVGNIFSGQVVSETAKTLSDRFGKVLQKRQSMTINRNDKSTSISTQMDSLIPPSKISNLTQGMFVGAVSDNFDERIEQKIFHAEIMVDNEKVKRETASYKKLPQIIDFRDEDGNDRMQEEIQANYNRVKQEVQQIITDEIERIKNDPNLQNLLKHE,not soluble
4,MPNPFSKGWKYLTASLDNKIEENADPVIQIKQAAEAAKKQHADIEQQAASVIGNRNQLQMKLNRLLKDQQSIQEKARQALSLSDSATDPAEQHKYLNAAEVYASQLVGVESEIEQTTTLHQQAEQAAEQATQQVKQSEARLHEQLSQINELTTQAQQAKMQEAAVAASDQINSIDPDRDVPTMDSIREKIERRYADALGSQELMQSSMNERIHEIEATTSERDMRANAKLDAIRAQMRGELPAGSEETEPPADK,not soluble
5,LRSSSQNSSDKPVAHVVANHQVEEQLEWLSQRANALLANGMDLKDNQLVVPADGLYLVYSQVLFKGQGCPDYVLLTHTVSRFAISYQEKVNLLSAVKSPCPKDTPEGAELKPWYEPIYLGGVFQLEKGDQLSAEVNLPKYLDFAESGQVYFGVIAL,soluble
6,MTTALKIDFISDVSCPWCVIGLRALDQALEALGDEVQAQIHFQPFELNPNMPAEGQDIKEHIAEKYGSTPEQIEAIHETIRERGAELGFTFGKGERRIYNTFDAHRLLHWAEQEGKQPALKQALFVAYFSELKDPSSHQTLADVAQKVGLDRLRAQAILDSDEFASEVREAEQLWTSRGITSVPTMVFNDQYAVSGGQPVEVFVSAIRQMLSESK,not soluble
7,MGSDKIHHHHHHMIIMRFLIKVKPEERKFRVPYNHQYFLQGLIYNRIKLTNPRLSTFLHETKGPKLFTYSLFMTERREHPKGLPYFLGYRRGFFYFSTCIPEIAEAFITGLFREPEITLWGEKFYLEEVKTLKEPKKFSGSTFITLSPIAVTMEKGGKRYDVSPLEEEFYALIRENLKDKYVMIKGEKPPDDFEMEIIAAKPKRFEVKPGIYQMAWHLVFRAYGDDELIRVGYVVGFGEKNSLGFGMVKVDEQRKRRKNIGSFQESMSFNENRELETGT,not soluble
8,MAAQPNAPESAWPVRELNSKVKSWIERLGHLWVEGQITQLNMKPSWKFSYITLRDPEAEASVQLTCATSLLHSLPSRLQDGDRVVVYGKPAFYEGRGSFSLWVTDIRPVGVGELLARIERLRQQLASEGLFDPALKKPLPFLPHTIGLITGRGSAAERDVLAVAHSRWPEVKFNVINTAVQGARAVPEIIEALQRLDADPSVDVIIIARGGGSVEDLLPFSEEALQRAVVAAHTPVVSAIGHEPDNPVLDNVADLRAATPTDAAKKVVPDVAAERQLIAELRSRSAAALRGWVHKERQQLAAVRSRPALADPVRAITLHREEIARSISSIRRDMRYMLSTERATVASLRQQVAALGPSATLARGYAVVQVVPRDGSAPEVVTTIGMSPPGSQLRIRVADGSITAAAMQTTPAD,not soluble
9,MAHHHHHHMSVDFTSKAVDLLKRATTLDEAKEYEEAYRWYMDSIEVFMTAIKYENKNPTKKEMLKNKVRQVMERAKMIKEYLDGSKEGDSNVGNTGSTAQKTASASKKAKEEEEDKQRMRNALGGAIVRVKPNVNWSQIAGLEGAKEALKEAVILPVRFPQLFTGNRKPWKGILMYGPPGTGKSFLAKAVATEADGTFLSVSSADLMSRWLGDSEKLVRNLFEMAREAWKTDGKPAIIFIDEIDSMCSSRTDGENDALRRIKTEFLVQMQGVGHEDDGVLVLGATNIPWSLDSAVRRRFERRIYIPLPDVQARYQMFKIHIGDTPHTLTEKDWYELARMTDKYSGSDINIVVRNAMMECIRSVQVATHFKRVTGPDLKDPTRMTNNRLVPCSPGDPEGFAMTAQEITEPGLLMPLPVTMQDFVKALRTARPSVADDDITQHLKFTEEFGQEG,not soluble
10,MGSDKIHHHHHHMTALDFLPNPPIKQELITPLFHLPYPNPSPIDPKVYKEQSNQAKALAQVFKKEEAHDFDYSSGSFLELFLALALEKKKLAIASSLHYNALKAAREVQKLGIEIFWLHPDVKSGVIEPNSLQEARTRGFELFFLPWANEDLLTLNPLESYGFSLDERLFVEASYPLALGIALPLLEKAHWLINGEILGIPRGYGAILGGEIPLHRPLMRANLFGVLHAALKAREILIENDDQKTLFYEHLSALLGENLSLFAPLKSCLPNALPLRFKGIRARSLIQALLLEKITSLNGQECLFGFSKPSSVLQSMGYDEDEARELLSVSFLPFGSIEELERIAKILALRYKQIHLYS,not soluble
11,MKKVLILSTSTGYGHNQAANSLMELIKNDDTEILVHDFLKENRFFDRSIVNGYDLCASSLGTLYGLLYKISNIKFINNLVSFLFLPVANKLAKFIHSFNPDLIITTHPLAVSILSYLKKRQIIKVPVISVVTDFKCHYTYVSKIIDHYIVACDFTKENLASKGIPKERISPFGIPVKQDFYKEDYHNYVENIIQSPLNILLMGGGMGLDNISKVLKTLIKNENPLNLTIVCGNNAELKEDLCKEYGHIKGNKKLNILGYTTEIPKIMKSSDLIITKPGGLTTTESLLSHLPMIIPFIIPGQESENREFLSKSNCAITINHLEELNKVINDLNKDNNKLINMRKSILDVLSSYSPEGTIKLCTKMLNDSYNKRRYLEHHHHHH,soluble
12,TMEPERLFNLIVKTTVDTLRAQIGYIILYSPREKNLQVTTLLGHTIPEGSTTTLPMKQSSVSTWVIENRRPLLITTMDEWPQFDRYSSLGYERRTLICAPLQIKDEIIGTITVVNKDDNSTYTIQELELLSTIAAQASIAIKNAQLYDEQQATYLHTIQALVSAIEAS,not soluble
13,MKRIADEELVREERAEESTQKWLQDAKFQEILGADSSHKSLFVLLSHPDGSQGILLANKSPFSEEKSDIEKLLATAQLQEISRNDIFGSYNIEIDPKLNLLKSQLIYPINDRLIAKYRQEEKFVIRETPELYETVTRPYIEKYQLNLNWVYNCLEKRSEVDKIVFEDPDNENGFVLLQDIKWDGKTLENLYVLAICHRHGLKSVRDLTGDDLEMLYNMRDKSLEAINQKYGLKTDQIKCYFHYQPSFYHLHVHFINLKYDAPASTTMSAILLDDVINNLELNPEHYKKSTLTFTRKNGDKLMEMFREALKN,not soluble
